In publication PMC10062032 (ACS Nano, 2023):

Biological target: T1, Methylococcus capsulatus (Bath) soluble methane monooxygenase hydroxylase (sMMOH), alpha subunit (Methylococcus capsulatus (Bath), UniProt P22869 1-527)
T1 sequence (looked up): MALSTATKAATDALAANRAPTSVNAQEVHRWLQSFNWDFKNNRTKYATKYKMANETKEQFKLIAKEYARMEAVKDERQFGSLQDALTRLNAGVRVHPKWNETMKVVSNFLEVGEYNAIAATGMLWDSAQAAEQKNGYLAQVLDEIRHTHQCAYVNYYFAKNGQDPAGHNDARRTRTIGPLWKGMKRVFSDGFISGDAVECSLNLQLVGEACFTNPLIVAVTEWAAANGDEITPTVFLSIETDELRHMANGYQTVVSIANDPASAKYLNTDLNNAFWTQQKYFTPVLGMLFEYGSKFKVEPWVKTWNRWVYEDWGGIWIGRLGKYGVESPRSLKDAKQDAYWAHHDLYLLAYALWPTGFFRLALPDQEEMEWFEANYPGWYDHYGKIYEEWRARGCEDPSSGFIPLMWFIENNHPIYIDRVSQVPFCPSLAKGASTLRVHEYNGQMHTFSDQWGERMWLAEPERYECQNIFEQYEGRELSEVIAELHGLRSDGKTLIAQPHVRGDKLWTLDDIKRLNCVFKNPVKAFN
Assay: cryo-EM structure

B1: Methylococcus capsulatus (Bath) soluble methane monooxygenase hydroxylase (sMMOH), beta subunit (natural protein, UniProt P18798 1-389, looked up)
chain: MSMLGERRRGLTDPEMAAVILKALPEAPLDGNNKMGYFVTPRWKRLTEYEALTVYAQPNADWIAGGLDWGDWTQKFHGGRPSWGNETTELRTVDWFKHRDPLRRWHAPYVKDKAEEWRYTDRFLQGYSADGQIRAMNPTWRDEFINRYWGAFLFNEYGLFNAHSQGAREALSDVTRVSLAFWGFDKIDIAQMIQLERGFLAKIVPGFDESTAVPKAEWTNGEVYKSARLAVEGLWQEVFDWNESAFSVHAVYDALFGQFVRREFFQRLAPRFGDNLTPFFINQAQTYFQIAKQGVQDLYYNCLGDDPEFSDYNRTVMRNWTGKWLEPTIAALRDFMGLFAKLPAGTTDKEEITASLYRVVDDWIEDYASRIDFKADRDQIVKAVLAGLK
B1: binds.
